This note sets out measurements from patent publication US20230407373A1 (priority 2020, published 2023).

The subject of one test is gRNA of HCoV-OC43. The class given is binding. As to conditions: for target (spectral count, OC43 Probe I RNP capture) / background (spectral count, no-probe control): type n_48_v: 48 hours post-infection; for target (spectral count, OC43 Probe I RNP capture): infected cells, unweighted spectral count; for background (spectral count, no-probe control): no-probe control on infected cells; for target (spectral count) / background (spectral count): type g_36_m, 36 hpi, Probe I; for target (spectral count): HCoV-OC43-infected HCT-8 cells; for background (spectral count): uninfected-probe control.

In the next test the test system is HCoV-OC43 gRNA and sgRNA. The class given is binding.

B1: ATXN2 ? (protein, UniProt Q99700 1-1313, looked up)
Ataxin-2: MRSAAAAPRSPAVATESRRFAAARWPGWRSLQRPARRSGRGGGGAAPGPYPSAAPPPPGPGPPPSRQSSPPSASDCFGSNGNGGGAFRPGSRRLLGLGGPPRPFVVLLLPLASPGAPPAAPTRASPLGARASPPRSGVSLARPAPGCPRPACEPVYGPLTMSLKPQQQQQQQQQQQQQQQQQQQQQQQPPPAAANVRKPGGSGLLASPAAAPSPSSSSVSSSSATAPSSVVAATSGGGRPGLGRGRNSNKGLPQSTISFDGIYANMRMVHILTSVVGSKCEVQVKNGGIYEGVFKTYSPKCDLVLDAAHEKSTESSSGPKREEIMESILFKCSDFVVVQFKDMDSSYAKRDAFTDSAISAKVNGEHKEKDLEPWDAGELTANEELEALENDVSNGWDPNDMFRYNEENYGVVSTYDSSLSSYTVPLERDNSEEFLKREARANQLAEEIESSAQYKARVALENDDRSEEEKYTAVQRNSSEREGHSINTRENKYIPPGQRNREVISWGSGRQNSPRMGQPGSGSMPSRSTSHTSDFNPNSGSDQRVVNGGVPWPSPCPSPSSRPPSRYQSGPNSLPPRAATPTRPPSRPPSRPSRPPSHPSAHGSPAPVSTMPKRMSSEGPPRMSPKAQRHPRNHRVSAGRGSISSGLEFVSHNPPSEAATPPVARTSPSGGTWSSVVSGVPRLSPKTHRPRSPRQNSIGNTPSGPVLASPQAGIIPTEAVAMPIPAASPTPASPASNRAVTPSSEAKDSRLQDQRQNSPAGNKENIKPNETSPSFSKAENKGISPVVSEHRKQIDDLKKFKNDFRLQPSSTSESMDQLLNKNREGEKSRDLIKDKIEPSAKDSFIENSSSNCTSGSSKPNSPSISPSILSNTEHKRGPEVTSQGVQTSSPACKQEKDDKEEKKDAAEQVRKSTLNPNAKEFNPRSFSQPKPSTTPTSPRPQAQPSPSMVGHQQPTPVYTQPVCFAPNMMYPVPVSPGVQPLYPIPMTPMPVNQAKTYRAVPNMPQQRQDQHHQSAMMHPASAAGPPIAATPPAYSTQYVAYSPQQFPNQPLVQHVPHYQSQHPHVYSPVIQGNARMMAPPTHAQPGLVSSSATQYGAHEQTHAMYACPKLPYNKETSPSFYFAISTGSLAQQYAHPNATLHPHTPHPQPSATPTGQQQSQHGGSHPAPSPVQHHQHQAAQALHLASPQQQSAIYHAGLAPTPPSMTPASNTQSPQNSFPAAQQTVFTIHPSHVQPAYTNPPHMAHVPQAHVQSGMVPSHPTAHAPMMLMTTQPPGGPQAALAQSALQPIPVSTTAHFPYMTHPSVQAHHQQQL
For the molecule B1, in the test with gRNA of HCoV-OC43, the “target (spectral count, OC43 Probe I RNP capture)” value came to 12 and the “background (spectral count, no-probe control)” value worked out at 1.

B2: MSN (protein, UniProt P26038 2-577, looked up)
Moesin: PKTISVRVTTMDAELEFAIQPNTTGKQLFDQVVKTIGLREVWFFGLQYQDTKGFSTWLKLNKKVTAQDVRKESPLLFKFRAKFYPEDVSEELIQDITQRLFFLQVKEGILNDDIYCPPETAVLLASYAVQSKYGDFNKEVHKSGYLAGDKLLPQRVLEQHKLNKDQWEERIQVWHEEHRGMLREDAVLEYLKIAQDLEMYGVNYFSIKNKKGSELWLGVDALGLNIYEQNDRLTPKIGFPWSEIRNISFNDKKFVIKPIDKKAPDFVFYAPRLRINKRILALCMGNHELYMRRRKPDTIEVQQMKAQAREEKHQKQMERAMLENEKKKREMAEKEKEKIEREKEELMERLKQIEEQTKKAQQELEEQTRRALELEQERKRAQSEAEKLAKERQEAEEAKEALLQASRDQKKTQEQLALEMAELTARISQLEMARQKKESEAVEWQQKAQMVQEDLEKTRAELKTAMSTPHVAEPAENEQDEQDENGAEASADLRADAMAKDRSEEERTTEAEKNERVQKHLKALTSELANARDESKKTANDMIHAENMRLGRDKYKTLRQIRQGNTKQRIDEFESM
Turning to B2, in the test on gRNA of HCoV-OC43, the “target (spectral count, OC43 Probe I RNP capture)” value is listed as 5 and the “background (spectral count, no-probe control)” value stood at 1.

B3: HNRNPAO: host protein, UniProt Q13151 (protein, UniProt Q13151 1-305, looked up)
Heterogeneous nuclear …: MENSQLCKLFIGGLNVQTSESGLRGHFEAFGTLTDCVVVVNPQTKRSRCFGFVTYSNVEEADAAMAASPHAVDGNTVELKRAVSREDSARPGAHAKVKKLFVGGLKGDVAEGDLIEHFSQFGTVEKAEIIADKQSGKKRGFGFVYFQNHDAADKAAVVKFHPIQGHRVEVKKAVPKEDIYSGGGGGGSRSSRGGRGGRGRGGGRDQNGLSKGGGGGYNSYGGYGGGGGGGYNAYGGGGGGSSYGGSDYGNGFGGFGSYSQHQSSYGPMKSGGGGGGGGSSWGGRSNSGPYRGGYGGGGGYGGSSF
Consider B3, for which, in the test with gRNA of HCoV-OC43, the “target (spectral count)” value turned out to be 15 and the “background (spectral count)” value was found to be 2.

B4: RIAS: host protein, UniProt P31483 (protein, UniProt P31483 1-386, looked up)
Cytotoxic granule associated …: MEDEMPKTLYVGNLSRDVTEALILQLFSQIGPCKNCKMIMDTAGNDPYCFVEFHEHRHAAAALAAMNGRKIMGKEVKVNWATTPSSQKKDTSSSTVVSTQRSQDHFHVFVGDLSPEITTEDIKAAFAPFGRISDARVVKDMATGKSKGYGFVSFFNKWDAENAIQQMGGQWLGGRQIRTNWATRKPPAPKSTYESNTKQLSYDEVVNQSSPSNCTVYCGGVTSGLTEQLMRQTFSPFGQIMEIRVFPDKGYSFVRFNSHESAAHAIVSVNGTTIEGHVVKCYWGKETLDMINPVQQQNQIGYPQPYGQWGQWYGNAQQIGQYMPNGWQVPAYGMYGQAWNQQGFNQTQSSAPWMGPNYGVQPPQGQNGSMLPNQPSGYRVAGYETQ
Regarding B4, in the test with gRNA of HCoV-OC43, the “target (spectral count)” value stood at 10 and the “background (spectral count)” value turned out to be 1.

B5: RBM15: host protein, UniProt Q96T37 (protein, UniProt Q96T37 1-977, looked up)
RNA-binding protein 15: MRTAGRDPVPRRSPRWRRAVPLCETSAGRRVTQLRGDDLRRPATMKGKERSPVKAKRSRGGEDSTSRGERSKKLGGSGGSNGSSSGKTDSGGGSRRSLHLDKSSSRGGSREYDTGGGSSSSRLHSYSSPSTKNSSGGGESRSSSRGGGGESRSSGAASSAPGGGDGAEYKTLKISELGSQLSDEAVEDGLFHEFKRFGDVSVKISHLSGSGSGDERVAFVNFRRPEDARAAKHARGRLVLYDRPLKIEAVYVSRRRSRSPLDKDTYPPSASVVGASVGGHRHPPGGGGGQRSLSPGGAALGYRDYRLQQLALGRLPPPPPPPLPRDLERERDYPFYERVRPAYSLEPRVGAGAGAAPFREVDEISPEDDQRANRTLFLGNLDITVTESDLRRAFDRFGVITEVDIKRPSRGQTSTYGFLKFENLDMSHRAKLAMSGKIIIRNPIKIGYGKATPTTRLWVGGLGPWVPLAALAREFDRFGTIRTIDYRKGDSWAYIQYESLDAAHAAWTHMRGFPLGGPDRRLRVDFADTEHRYQQQYLQPLPLTHYELVTDAFGHRAPDPLRGARDRTPPLLYRDRDRDLYPDSDWVPPPPPVRERSTRTAATSVPAYEPLDSLDRRRDGWSLDRDRGDRDLPSSRDQPRKRRLPEESGGRHLDRSPESDRPRKRHCAPSPDRSPELSSSRDRYNSDNDRSSRLLLERPSPIRDRRGSLEKSQGDKRDRKNSASAERDRKHRTTAPTEGKSPLKKEDRSDGSAPSTSTASSKLKSPSQKQDGGTAPVASASPKLCLAWQGMLLLKNSNFPSNMHLLQGDLQVASSLLVEGSTGGKVAQLKITQRLRLDQPKLDEVTRRIKVAGPNGYAILLAVPGSSDSRSSSSSAASDTATSTQRPLRNLVSYLKQKQAAGVISLPVGGNKDKENTGVLHAFPPCEFSQQFLDSPAKALAKSEEDYLVMIIVRGFGFQIGVRYENKKRENLALTLL
For the molecule B5, in the test with gRNA of HCoV-OC43, the “target (spectral count)” value stood at 9; the “background (spectral count)” value is 1; the “target (spectral count, OC43 Probe I RNP capture)” value stood at 14; the “background (spectral count, no-probe control)” value turned out to be 1. In addition, the “target (unweighted spectral count, OC43 Probe II capture)” value in the test on HCoV-OC43 gRNA and sgRNA (24 hpi, type n_24_v, tested against no-probe control, FDR<10%) came out at 5. The “target (unweighted spectral count, OC43 Probe II)” value in the test with HCoV-OC43 gRNA and sgRNA (type n_48_v, 48 hpi, OC43 Probe II capture on infected cells) was found to be 11. Moreover, the “background (unweighted spectral count, no-probe control)” value in the test with HCoV-OC43 gRNA and sgRNA (type n_48_v, 48 hpi, no-probe control on infected cells) was 1.

B6: TECR: host protein, UniProt Q9NZ01 (protein, UniProt Q9NZ01 1-308, looked up)
Very-long-chain enoyl-CoA …: MKHYEVEILDAKTREKLCFLDKVEPHATIAEIKNLFTKTHPQWYPARQSLRLDPKGKSLKDEDVLQKLPVGTTATLYFRDLGAQISWVTVFLTEYAGPLFIYLLFYFRVPFIYGHKYDFTSSRHTVVHLACICHSFHYIKRLLETLFVHRFSHGTMPLRNIFKNCTYYWGFAAWMAYYINHPLYTPPTYGAQQVKLALAIFVICQLGNFSIHMALRDLRPAGSKTRKIPYPTKNPFTWLFLLVSCPNYTYEVGSWIGFAIMTQCLPVALFSLVGFTQMTIWAKGKHRSYLKEFRDYPPLRMPIIPFLL
B6: in the test with gRNA of HCoV-OC43, the “target (spectral count)” value stood at 9 and the “background (spectral count)” value worked out at 1.

B7: SNW1 (protein, UniProt Q13573 2-536, looked up)
SNW domain-containing protein …: ALTSFLPAPTQLSQDQLEAEEKARSQRSRQTSLVSSRREPPPYGYRKGWIPRLLEDFGDGGAFPEIHVAQYPLDMGRKKKMSNALAIQVDSEGKIKYDAIARQGQSKDKVIYSKYTDLVPKEVMNADDPDLQRPDEEAIKEITEKTRVALEKSVSQKVAAAMPVRAADKLAPAQYIRYTPSQQGVAFNSGAKQRVIRMVEMQKDPMEPPRFKINKKIPRGPPSPPAPVMHSPSRKMTVKEQQEWKIPPCISNWKNAKGYTIPLDKRLAADGRGLQTVHINENFAKLAEALYIADRKAREAVEMRAQVERKMAQKEKEKHEEKLREMAQKARERRAGIKTHVEKEDGEARERDEIRHDRRKERQHDRNLSRAAPDKRSKLQRNENRDISEVIALGVPNPRTSNEVQYDQRLFNQSKGMDSGFAGGEDEIYNVYDQAWRGGKDMAQSIYRPSKNLDKDMYGDDLEARIKTNRFVPDKEFSGSDRRQRGREGPVQFEEDPFGLDKFLEEAKQHGGSKRPSDSSRPKEHEHEGKKRRKE
With B7, in the test with gRNA of HCoV-OC43, the “target (spectral count, OC43 Probe I RNP capture)” value is reported as 5 and the “background (spectral count, no-probe control)” value was 1.
